The values that follow come from US20260176342A1 (CITRYLL B V, published 2026).

In assay [1] the target is T1, citrullinated histone 4-derived peptide (SEQ ID NO: 20), C-terminal biotin (human, citrulline at position 3; biotin at the C-terminus).
T1 construct: Immobilized on streptavidin biosensors (Octet RED96); also called H4-derived peptide; N-terminal histone 4 peptide
T1 peptide: SGXGKGGKGLGK
In words: Octet RED96 off-rate screen, biotinylated peptide on streptavidin biosensors, antibody 72 nM, 30 C. The protocol: (§1) Off-rate screening of the isomerization-mutated antibodies was performed on an Octet® RED96 (biomolecule detection system) instrument (Pall ForteBio). All measurements were performed at 30° C. Streptavidin (SA) biosensors were first washed for 50 sec with PBS. 1 μg/ml N-terminal histone 2A (SEQ ID NO: 18) and histone 4 (SEQ ID NO: 20) peptides, containing both a citrulline at position 3 and a biotin at the C-terminus, were immobilized on SA biosensors for 200 sec, washed with PBS for 50 sec and excess reactive streptavidin molecules blocked with EZ-Link™ biocytin for 200 sec. After two additional 50 sec wash steps in PBS, antibodies at a concentration of 72 nM diluted in PBS were allowed to bind to the biosensors for 200 sec. Sensors were subsequently placed in PBS for 4000 sec in order to measure their dissociation rates.
(§2) Background signals generated with non-coated biosensors, which have been exposed to the various antibodies as well as signals from coated biosensors that have not been exposed to the various antibodies, have been subtracted before dissociation curves for each antibody were plotted. Both histone 2A and histone 4 dissociation rates constants (kdis×E-07 (1/s)) for each antibody were calculated applying a 1:1 interaction model (fitting local, full) using ForteBio data analysis software 8.1.

The target of assay [2] is T2, citrullinated histone 2A-derived peptide (SEQ ID NO: 18), C-terminal biotin (human).
T2 construct: Captured by its biotin on NeutrAvidin plates (ELISA) or streptavidin biosensors (Octet); also called histone-derived peptide; citrullinated H2A-derived peptide
T2 peptide: SG[Cit]GKQGGKARA-biotin
The assay is described as above. How it is done: as §1, §2

Square brackets hold non-standard residues; d marks the D form. Ends that are not written are not given here. Cit = NC(=O)NCCC[C@H](N)C(=O)O

B1: hMQ22.101j/LC17 (antibody, V domains shown)
VH: QVQLVQSGAEVKKPGASVKVSCKASGYTFTNYGMHWVRQAPGQGLEWMGWINTYSGEATYAQKFQGRVTMTRDTSISTAYMELSRLRSDDTAVYYCLRGYTYQSFDEGGDYWGQGTLVTVSS
VL: DVVMTQSPLSLPVTLGQPASISCRSSQSLLDTDGKTYLNWFQQRPGQSPRRLIYLVSKLDSGVPDRFSGSGSGTDFTLKISRVEAEDVGVYYCWQGTHFPYTFGQGTKLEIK
notes: also called isomerization mutant; heavy chain hVH22.101j with light chain hVL22.101LC17
Turning to B1, the binding result in assay [1] and in assay [2] was “binds” in each case.

B2: hMQ22.101HC9/LC17 (antibody, V domains shown)
VH: RIQLVQSGAEVKKPGASVKVSCKASGYTFTNYGMHWVRQAPGQGLEWMGWINTYSGEATYVDDFQGRVTMTRDTSISTAYMELSRLRSDDTAVYYCLRGYTYQSFDEGGDYWGQGTLVTVSS
VL: DVVMTQSPLSLPVTLGQPASISCRSSQSLLDTDGKTYLNWFQQRPGQSPRRLIYLVSKLDSGVPDRFSGSGSGTDFTLKISRVEAEDVGVYYCWQGTHFPYTFGQGTKLEIK
notes: also called isomerization mutant; heavy chain hVH22.101HC9 with light chain hVL22.101LC17
Take B2: the binding result in assay [1] and in assay [2] was “binds” each time.

B3: hMQ22.101HC9/LC21 (antibody, V domains shown)
VH: RIQLVQSGAEVKKPGASVKVSCKASGYTFTNYGMHWVRQAPGQGLEWMGWINTYSGEATYVDDFQGRVTMTRDTSISTAYMELSRLRSDDTAVYYCLRGYTYQSFDEGGDYWGQGTLVTVSS
VL: DVVMTQSPLSLPVTLGQPASISCRSSQSLLDSDAKTYLNWFQQRPGQSPRRLIYLVSKLDSGVPDRFSGSGSGTDFTLKISRVEAEDVGVYYCWQGTHFPYTFGQGTKLEIK
notes: also called isomerization mutant; heavy chain hVH22.101HC9 with light chain hVL22.101LC21
For the molecule B3, the binding result in assay [1] and in assay [2] was “binds” each time.

B4: hMQ22.101HC8/LC42 (antibody, V domains shown)
VH: QVQLVQSGAEVKKPGSSVKVSCKASGYTFTNYGMHWVRQAPGQGLEWMGWINTYSGEATYVDDFQGRVTITADESTSTAYMELSSLRSEDTAVYYCLRGYTYQSFDEGGDYWGQGTLVTVSS
VL: DVVMTQSPLSLPVTLGQPASISCRSSQSLLDNDGKTYLNWFQQRPGQSPRRLIYLVSKLDSGVPDRFSGSGSGTDFTLKISRVEAEDVGVYYCWQGTHFPYTFGQGTKLEIK
notes: also called isomerization mutant; heavy chain hVH22.101HC8 with light chain hVL22.101LC42
For the molecule B4, the binding result in assay [1] and in assay [2] was “binds” throughout.

B5: hMQ22.101HC7/LC41 (antibody, V domains shown)
VH: QVQLVQSGAEVKKPGSSVKVSCKASGYTFTNYGMHWVRQAPGQGLEWMGWINTYSGEATYAQKFQGRVTITADESTSTAYMELSSLRSEDTAVYYCLRGYTYQSFDEGGDYWGQGTLVTVSS
VL: DVVMTQSPLSLPVTLGQPASISCRSSQSLLDADGKTYLNWFQQRPGQSPRRLIYLVSKLDSGVPDRFSGSGSGTDFTLKISRVEAEDVGVYYCWQGTHFPYTFGQGTKLEIK
notes: also called isomerization mutant; heavy chain hVH22.101HC7 with light chain hVL22.101LC41
In the case of B5, the binding result in assay [1] and in assay [2] was “binds” each time.

B6: hMQ22.101HC8/LC21 (antibody, V domains shown)
VH: QVQLVQSGAEVKKPGSSVKVSCKASGYTFTNYGMHWVRQAPGQGLEWMGWINTYSGEATYVDDFQGRVTITADESTSTAYMELSSLRSEDTAVYYCLRGYTYQSFDEGGDYWGQGTLVTVSS
VL: DVVMTQSPLSLPVTLGQPASISCRSSQSLLDSDAKTYLNWFQQRPGQSPRRLIYLVSKLDSGVPDRFSGSGSGTDFTLKISRVEAEDVGVYYCWQGTHFPYTFGQGTKLEIK
notes: also called isomerization mutant; heavy chain hVH22.101HC8 with light chain hVL22.101LC21
For B6, the binding result in assay [1] and in assay [2] was “binds” in each case.

B7: hMQ22.101HC7/LC21 (antibody, V domains shown)
VH: QVQLVQSGAEVKKPGSSVKVSCKASGYTFTNYGMHWVRQAPGQGLEWMGWINTYSGEATYAQKFQGRVTITADESTSTAYMELSSLRSEDTAVYYCLRGYTYQSFDEGGDYWGQGTLVTVSS
VL: DVVMTQSPLSLPVTLGQPASISCRSSQSLLDSDAKTYLNWFQQRPGQSPRRLIYLVSKLDSGVPDRFSGSGSGTDFTLKISRVEAEDVGVYYCWQGTHFPYTFGQGTKLEIK
notes: also called isomerization mutant; heavy chain hVH22.101HC7 with light chain hVL22.101LC21
Regarding B7, the binding result in assay [1] and in assay [2] was “binds” throughout.

B8: hMQ22.101HC7/LC27 (antibody, V domains shown)
VH: QVQLVQSGAEVKKPGSSVKVSCKASGYTFTNYGMHWVRQAPGQGLEWMGWINTYSGEATYAQKFQGRVTITADESTSTAYMELSSLRSEDTAVYYCLRGYTYQSFDEGGDYWGQGTLVTVSS
VL: DVVMTQSPLSLPVTLGQPASISCRSSQSLLDTDAKTYLNWFQQRPGQSPRRLIYLVSKLDSGVPDRFSGSGSGTDFTLKISRVEAEDVGVYYCWQGTHFPYTFGQGTKLEIK
notes: also called isomerization mutant; heavy chain hVH22.101HC7 with light chain hVL22.101LC27
For the molecule B8, the binding result in assay [1] and in assay [2] was “binds” in each case.

B9: hMQ22.101HC9/LC42 (antibody, V domains shown)
VH: RIQLVQSGAEVKKPGASVKVSCKASGYTFTNYGMHWVRQAPGQGLEWMGWINTYSGEATYVDDFQGRVTMTRDTSISTAYMELSRLRSDDTAVYYCLRGYTYQSFDEGGDYWGQGTLVTVSS
VL: DVVMTQSPLSLPVTLGQPASISCRSSQSLLDNDGKTYLNWFQQRPGQSPRRLIYLVSKLDSGVPDRFSGSGSGTDFTLKISRVEAEDVGVYYCWQGTHFPYTFGQGTKLEIK
notes: also called isomerization mutant; heavy chain hVH22.101HC9 with light chain hVL22.101LC42
In the case of B9, the binding result in assay [1] and in assay [2] was “binds” in each case.

B10: hMQ22.101HC8/LC27 (antibody, V domains shown)
VH: QVQLVQSGAEVKKPGSSVKVSCKASGYTFTNYGMHWVRQAPGQGLEWMGWINTYSGEATYVDDFQGRVTITADESTSTAYMELSSLRSEDTAVYYCLRGYTYQSFDEGGDYWGQGTLVTVSS
VL: DVVMTQSPLSLPVTLGQPASISCRSSQSLLDTDAKTYLNWFQQRPGQSPRRLIYLVSKLDSGVPDRFSGSGSGTDFTLKISRVEAEDVGVYYCWQGTHFPYTFGQGTKLEIK
notes: also called isomerization mutant; heavy chain hVH22.101HC8 with light chain hVL22.101LC27
Regarding B10, the binding result in assay [1] and in assay [2] was “binds” in each case.

B11: hMQ22.101HC9/LC27 (antibody, V domains shown)
VH: RIQLVQSGAEVKKPGASVKVSCKASGYTFTNYGMHWVRQAPGQGLEWMGWINTYSGEATYVDDFQGRVTMTRDTSISTAYMELSRLRSDDTAVYYCLRGYTYQSFDEGGDYWGQGTLVTVSS
VL: DVVMTQSPLSLPVTLGQPASISCRSSQSLLDTDAKTYLNWFQQRPGQSPRRLIYLVSKLDSGVPDRFSGSGSGTDFTLKISRVEAEDVGVYYCWQGTHFPYTFGQGTKLEIK
notes: also called isomerization mutant; heavy chain hVH22.101HC9 with light chain hVL22.101LC27
Take B11: the binding result in assay [1] and in assay [2] was “binds” each time.

B12: hMQ22.101HC8/LC17 (antibody, V domains shown)
VH: QVQLVQSGAEVKKPGSSVKVSCKASGYTFTNYGMHWVRQAPGQGLEWMGWINTYSGEATYVDDFQGRVTITADESTSTAYMELSSLRSEDTAVYYCLRGYTYQSFDEGGDYWGQGTLVTVSS
VL: DVVMTQSPLSLPVTLGQPASISCRSSQSLLDTDGKTYLNWFQQRPGQSPRRLIYLVSKLDSGVPDRFSGSGSGTDFTLKISRVEAEDVGVYYCWQGTHFPYTFGQGTKLEIK
notes: also called isomerization mutant; heavy chain hVH22.101HC8 with light chain hVL22.101LC17
For B12, the binding result in assay [1] and in assay [2] was “binds” throughout.

B13: hMQ22.101HC7/LC17 (antibody, V domains shown)
VH: QVQLVQSGAEVKKPGSSVKVSCKASGYTFTNYGMHWVRQAPGQGLEWMGWINTYSGEATYAQKFQGRVTITADESTSTAYMELSSLRSEDTAVYYCLRGYTYQSFDEGGDYWGQGTLVTVSS
VL: DVVMTQSPLSLPVTLGQPASISCRSSQSLLDTDGKTYLNWFQQRPGQSPRRLIYLVSKLDSGVPDRFSGSGSGTDFTLKISRVEAEDVGVYYCWQGTHFPYTFGQGTKLEIK
notes: also called isomerization mutant; heavy chain hVH22.101HC7 with light chain hVL22.101LC17
For B13, the binding result in assay [1] and in assay [2] was “binds” in each case.

B14: hMQ22.101HC8/LC41 (antibody, V domains shown)
VH: QVQLVQSGAEVKKPGSSVKVSCKASGYTFTNYGMHWVRQAPGQGLEWMGWINTYSGEATYVDDFQGRVTITADESTSTAYMELSSLRSEDTAVYYCLRGYTYQSFDEGGDYWGQGTLVTVSS
VL: DVVMTQSPLSLPVTLGQPASISCRSSQSLLDADGKTYLNWFQQRPGQSPRRLIYLVSKLDSGVPDRFSGSGSGTDFTLKISRVEAEDVGVYYCWQGTHFPYTFGQGTKLEIK
notes: also called isomerization mutant; heavy chain hVH22.101HC8 with light chain hVL22.101LC41
In the case of B14, the binding result in assay [1] and in assay [2] was “binds” in each case.

B15: hMQ22.101HC9/LC41 (antibody, V domains shown)
VH: RIQLVQSGAEVKKPGASVKVSCKASGYTFTNYGMHWVRQAPGQGLEWMGWINTYSGEATYVDDFQGRVTMTRDTSISTAYMELSRLRSDDTAVYYCLRGYTYQSFDEGGDYWGQGTLVTVSS
VL: DVVMTQSPLSLPVTLGQPASISCRSSQSLLDADGKTYLNWFQQRPGQSPRRLIYLVSKLDSGVPDRFSGSGSGTDFTLKISRVEAEDVGVYYCWQGTHFPYTFGQGTKLEIK
notes: also called isomerization mutant; heavy chain hVH22.101HC9 with light chain hVL22.101LC41
On to B15, for which the binding result in assay [1] and in assay [2] was “binds” in each case.

B16: hMQ22.101HC7/LC42 (antibody, V domains shown)
VH: QVQLVQSGAEVKKPGSSVKVSCKASGYTFTNYGMHWVRQAPGQGLEWMGWINTYSGEATYAQKFQGRVTITADESTSTAYMELSSLRSEDTAVYYCLRGYTYQSFDEGGDYWGQGTLVTVSS
VL: DVVMTQSPLSLPVTLGQPASISCRSSQSLLDNDGKTYLNWFQQRPGQSPRRLIYLVSKLDSGVPDRFSGSGSGTDFTLKISRVEAEDVGVYYCWQGTHFPYTFGQGTKLEIK
notes: also called isomerization mutant; heavy chain hVH22.101HC7 with light chain hVL22.101LC42
B16: the binding result in assay [1] and in assay [2] was “binds” in each case.
